Our source for the Ki values is patent US20180118786A1 (published 2018).

Starred links: 1 amine or outer side, 2 acyl side, 3 side chain; linkers in the order of their positions; H or OH if unused. Positions of bridges follow the written chain, without caps; N, C: chain ends. Non-standard residues stand in square brackets, D forms with d. No end group written: not given here. TATA = O=C(CC[*:1])N1CN(C(=O)CC[*:2])CN(C(=O)CC[*:3])C1; βAla = NCCC(=O)O

T1: human β-FXIIa (HFXIIAB; Molecular Innovations) (human, UniProt P00748 354-362; P00748 373-615)
T1 chain 1: NGPLSCGQR
T1 chain 2: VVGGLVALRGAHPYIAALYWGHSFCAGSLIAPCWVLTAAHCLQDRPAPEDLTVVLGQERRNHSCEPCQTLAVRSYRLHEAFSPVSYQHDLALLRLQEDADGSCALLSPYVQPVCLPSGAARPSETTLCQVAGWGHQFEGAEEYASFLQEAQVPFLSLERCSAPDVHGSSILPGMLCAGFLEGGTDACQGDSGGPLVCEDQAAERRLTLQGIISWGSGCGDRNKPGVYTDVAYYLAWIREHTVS

B1: FXII618 variant with P in position six replaced by S (peptide)
peptide: RCFRLSCRQLRCRW-NH2
modifications: linker 2-7-12 via TATA; N-terminus assumed
SMILES: CC(C)C[C@@H]1NC(=O)[C@H](CCC(N)=O)NC(=O)[C@H](CCCNC(=N)N)NC(=O)[C@@H]2CSCCC(=O)N3CN(CN(C3)C(=O)CCSC[C@H](NC(=O)[C@@H](N)CCCNC(=N)N)C(=O)N[C@@H](Cc3ccccc3)C(=O)N[C@@H](CCCNC(=N)N)C(=O)N[C@@H](CC(C)C)C(=O)N[C@@H](CO)C(=O)N2)C(=O)CCSC[C@@H](C(=O)N[C@@H](CCCNC(=N)N)C(=O)N[C@@H](Cc2c[nH]c3ccccc23)C(N)=O)NC(=O)[C@H](CCCNC(=N)N)NC1=O
B2: peptide 18 (peptide 2, Pro6 to leucine) (peptide)
peptide: RCFRLLCRQLRCRW-NH2
modifications: linker 2-7-12 via TATA; N-terminus assumed
SMILES: CC(C)C[C@@H]1NC(=O)[C@H](CCC(N)=O)NC(=O)[C@H](CCCNC(=N)N)NC(=O)[C@@H]2CSCCC(=O)N3CN(CN(C3)C(=O)CCSC[C@H](NC(=O)[C@@H](N)CCCNC(=N)N)C(=O)N[C@@H](Cc3ccccc3)C(=O)N[C@@H](CCCNC(=N)N)C(=O)N[C@@H](CC(C)C)C(=O)N[C@@H](CC(C)C)C(=O)N2)C(=O)CCSC[C@@H](C(=O)N[C@@H](CCCNC(=N)N)C(=O)N[C@@H](Cc2c[nH]c3ccccc23)C(N)=O)NC(=O)[C@H](CCCNC(=N)N)NC1=O
B3: peptide 15 (peptide 2, Pro6 to alanine) (peptide)
peptide: RCFRLACRQLRCRW-NH2
modifications: linker 2-7-12 via TATA; N-terminus assumed
SMILES: CC(C)C[C@@H]1NC(=O)[C@H](CCCNC(=N)N)NC(=O)[C@H](Cc2ccccc2)NC(=O)[C@@H](NC(=O)[C@@H](N)CCCNC(=N)N)CSCCC(=O)N2CN3CN(C2)C(=O)CCSC[C@@H](C(=O)N[C@@H](CCCNC(=N)N)C(=O)N[C@@H](Cc2c[nH]c4ccccc24)C(N)=O)NC(=O)[C@H](CCCNC(=N)N)NC(=O)[C@H](CC(C)C)NC(=O)[C@H](CCC(N)=O)NC(=O)[C@H](CCCNC(=N)N)NC(=O)[C@H](CSCCC3=O)NC(=O)[C@H](C)NC1=O
B4: peptide 21 (peptide 2, Gln9 to aspartate) (peptide)
peptide: RCFRLPCRDLRCRW-NH2
modifications: linker 2-7-12 via TATA; N-terminus assumed
SMILES: CC(C)C[C@@H]1NC(=O)[C@H](CC(=O)O)NC(=O)[C@H](CCCNC(=N)N)NC(=O)[C@@H]2CSCCC(=O)N3CN(CN(C3)C(=O)CCSC[C@H](NC(=O)[C@@H](N)CCCNC(=N)N)C(=O)N[C@@H](Cc3ccccc3)C(=O)N[C@@H](CCCNC(=N)N)C(=O)N[C@@H](CC(C)C)C(=O)N3CCC[C@H]3C(=O)N2)C(=O)CCSC[C@@H](C(=O)N[C@@H](CCCNC(=N)N)C(=O)N[C@@H](Cc2c[nH]c3ccccc23)C(N)=O)NC(=O)[C@H](CCCNC(=N)N)NC1=O
B5: peptide 83 (FXII618, Arg8 to glycine) (peptide)
peptide: RCFRLPCGQLRCR-NH2
modifications: linker 2-7-12 via TATA; N-terminus assumed
SMILES: CC(C)C[C@@H]1NC(=O)[C@H](CCC(N)=O)NC(=O)CNC(=O)[C@@H]2CSCCC(=O)N3CN(CN(C3)C(=O)CCSC[C@H](NC(=O)[C@@H](N)CCCNC(=N)N)C(=O)N[C@@H](Cc3ccccc3)C(=O)N[C@@H](CCCNC(=N)N)C(=O)N[C@@H](CC(C)C)C(=O)N3CCC[C@H]3C(=O)N2)C(=O)CCSC[C@@H](C(=O)N[C@@H](CCCNC(=N)N)C(N)=O)NC(=O)[C@H](CCCNC(=N)N)NC1=O

The target in the first experiment is T1, human β-FXIIa (HFXIIAB; Molecular …). The experiment in a line: enzyme inhibition.
Molecule RCFRLPCSQLSCE [FXII613] gave an inhibition constant Ki of 62 nM.
Same read-out and setting: then RCPRLPCAQLRCE [FXII609], with 123 nM; and RCFRLPCAQLRCE [FXII608], with 44 nM; and RCFRLPCAQLRCR [FXII617], with 25 nM.
As to ACFRLPCAQLSCE [FXII610], affinity was put at a Ki of 231 nM.
Still for that read-out and setting: then RCFRLPCWQLSCE [FXII615], with 246 nM.
On to RCFRLPCRQLRCA [FXII616], for which the Ki was 31 nM.
Consider RCFRLPCRQLSCE [FXII614], for which the Ki came to 39 nM.
Still for that read-out and setting: then RCPRLPCAQLSCE [FXII607], with 985 nM; and RCFRLPCEQLSCE [FXII612], with 63 nM.

A further experiment shares this target. The experiment in a line: enzyme inhibition; TATA-cyclized.
In turn, LCSRLPCEQLPCN [FXII514] returned a Ki of 10200 nM.
The same measure, in the same setting: then GCCYLRYLCS [FXII513], with 350 nM.
As for ACWGACQNVCR [FXII506], the affinity, expressed as Ki, was 6300 nM.
The same measure, in the same setting: then ACWGAAQRCKVMQGECG [FXII528], with 3700 nM.
For the molecule LCPRLSCHQLGCS [FXII515], the Ki amounted to 2500 nM. The Ki values of the last two molecules are within 1.5-fold of each other.
The same measure, in the same setting: then VCWGACLNVCP [FXII504], with 1900 nM; and RCWYGCVPQCY [FXII509], with 1000 nM; and ACWGAALSCNPQGSRCG [FXII527], with 8500 nM.
ACWGAASACQQGGAKCG [FXII534] registered a Ki of 2400 nM. This Ki lies about 3.5-fold lower than the previous one.
Still for that read-out and setting: then RCWGACLNVCS [FXII502], with 1200 nM.

The target is the same in another experiment. The experiment in a line: enzyme inhibition. The source holds these as a separate data set.
As to B1, the affinity, expressed as Ki, was 75 nM.
On the same count and under the same terms, then RCFRLNCRQLRCR [Pro6 Asparagine (19)], with 264 nM.
Turning to B2, the Ki stood at 20 nM. This Ki lies about 13-fold lower than the previous one.
The molecule RCFRLDCRQLRCR [Pro6 Aspartic acid (20)] returned a Ki of 307 nM.
Still for that read-out and setting: then RCFRLVCRQLRCR [Pro6 Valine (17)], with 119 nM; and B3, with 50 nM.

For the next experiment the target is unchanged. The experiment in a line: enzyme inhibition. The source holds these as a separate data set.
As to B4, the Ki was determined as 1400 nM.
For RCFRLPC[βAla]QLRCR-NH2 (linker 2-7-12 via TATA; not fully specified) [peptide 82 (FXII618, Arg8 to β-alanine)], the Ki worked out at 755 nM.
With B5, the Ki was 52 nM. Against the preceding molecule, the Ki is about 15-fold lower.
In the case of RCFRLPCRHLRCR [Gln9 Histidine (24)], the Ki is more than 10000 nM.

By Ki is commonly meant the equilibrium dissociation constant of an inhibitor or competing ligand from its target. Lower therefore signals tighter binding.
